Data taken from patent US20250163167A1 (SYNTHEKINE, published 2025).

T1: human IL-10 receptor (hIL-10R alpha and beta chains) on HEK-Blue IL-10 reporter cells (human, UniProt Q13651 22-578; Q08334 20-325)
T1 sequence 1: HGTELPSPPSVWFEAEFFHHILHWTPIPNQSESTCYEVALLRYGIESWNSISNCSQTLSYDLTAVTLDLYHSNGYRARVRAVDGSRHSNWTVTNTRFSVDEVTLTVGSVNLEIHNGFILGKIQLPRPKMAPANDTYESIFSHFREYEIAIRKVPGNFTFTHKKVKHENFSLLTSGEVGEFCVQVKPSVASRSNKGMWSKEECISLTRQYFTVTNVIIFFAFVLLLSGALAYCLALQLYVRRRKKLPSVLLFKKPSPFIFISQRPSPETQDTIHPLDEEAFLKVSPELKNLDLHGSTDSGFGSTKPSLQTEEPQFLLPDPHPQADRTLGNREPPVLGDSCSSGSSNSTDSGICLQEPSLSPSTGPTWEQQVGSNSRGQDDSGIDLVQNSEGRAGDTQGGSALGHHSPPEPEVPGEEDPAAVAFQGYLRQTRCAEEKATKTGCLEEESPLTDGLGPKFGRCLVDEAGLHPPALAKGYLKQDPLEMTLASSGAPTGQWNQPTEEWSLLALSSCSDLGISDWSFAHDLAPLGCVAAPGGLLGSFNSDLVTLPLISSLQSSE
T1 sequence 2: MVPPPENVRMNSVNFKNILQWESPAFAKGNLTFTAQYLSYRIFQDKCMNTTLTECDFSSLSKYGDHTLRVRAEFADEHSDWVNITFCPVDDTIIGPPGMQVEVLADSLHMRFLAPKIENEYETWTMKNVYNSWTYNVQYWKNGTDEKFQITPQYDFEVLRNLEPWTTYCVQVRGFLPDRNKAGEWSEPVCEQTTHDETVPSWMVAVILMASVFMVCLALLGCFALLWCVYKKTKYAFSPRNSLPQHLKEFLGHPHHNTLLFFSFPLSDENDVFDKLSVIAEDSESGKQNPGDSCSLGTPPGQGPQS

B1: wild-type human IL-10 (Recombinant Animal-Free Human IL-10, Shenandoah Biotechnology) (ligand)
chain: SPGQGTQSENSCTHFPGNLPNMLRDLRDAFSRVKTFFQMKDQLDNLLLKESLLEDFKGYLGCQALSEMIQFYLEEVMPQAENQDPDIKAHVNSLGENLKTLRLRLRRCHRFLPCENKSKAVEQVKNAFNKLQEKGIYKAMSEFDIFINYIEAYMTMKIRN
B2: IL10R binding molecule of SEQ ID NO: 259 (bispecific antibody)
chain: QVQLQESGGGSVQAGGSLRLSCAASRYLYSIDYMAWFRQSPGKEREPVAVIYTASGATFYPDSVKGRFTISQDNAKMTVYLQMNSLKSEDTAMYYCAAVRKTDSYLFDAQSFTYWGQGTQVTVSSGGGSQVQLQESGGGSVQAGGSLRLSCTVSRYTASVNYMGWFRQAPGKEREGVATIFTGAGTTYYANSVKGRFTISRDNAKNTAYLQMNSLKPEDTAIYYCAVDFRGGLLYRPAYEYTYRGQGTQVTVSSASHHHHHH
B3: IL10R binding molecule of SEQ ID NO: 304 (bispecific antibody)
chain: QVQLQESGGGSVQAGGSLRLSCAASGYSNCSYDMTWYRQAPGKEREFVSAIHSDGSTRYADSVKGRFFISQDNAKNTVYLQMNSLKPEDTAMYYCKTDPLHCRAHGGSWYSVRANYWGQGTQVTVSSGGGSQVQLQESGGGSVQTGGSLRLSCAASGYTYLRGCMGWFRQAPGKEREGVAVMDVVGDRRSYIDSVKGRFTISRDNAANSVYLQMDNLKPEDTAMYYCTAGPNCVGWRSGLDYWGQGTQVTVSSASHHHHHH
B4: IL10R binding molecule of SEQ ID NO: 305 (bispecific antibody)
chain: QVQLQESGGGSVQAGGSLRLSCAASGYTYSSGCMGWFRQAPGKEREAVAAINSDGSTSYADSVKGRFTISKDNAKNTLYLQMNSLKPEDTAMYYCAAEPYCSGGYPRWSVAEFGYWGQGTQVTVSSGGGSQVQLQESGGGSVQAGGSLRLSCAASRYLYSIDYMAWFRQSPGKEREPVAVIYTASGATFYPDSVKGRFTISQDNAKMTVYLQMNSLKSEDTAMYYCAAVRKTDSYLFDAQSFTYWGQGTQVTVSSASHHHHHH
B5: IL10R binding molecule of SEQ ID NO: 306 (bispecific antibody)
chain: QVQLQESGGGSVQAGGSLRLSCAASGYTYSSGCMGWFRQAPGKEREAVAAINSDGSTSYADSVKGRFTISKDNAKNTLYLQMNSLKPEDTAMYYCAAEPYCSGGYPRWSVAEFGYWGQGTQVTVSSGGGSQVQLQESGGGSVQAGGSLRLSCAASRFTYSSYCMGWFRQAPGKEREGVASIDSDGSTSYTDSVKGRFTISKDNAKNTLYLQMNSLKPEDTAMYYCALDLMSTVVPGFCGFLLSAGMDYWGKGTQVTVSSASHHHHHH
B6: IL10R binding molecule of SEQ ID NO: 307 (bispecific antibody)
chain: QVQLQESGGGSVQAGGSLRLSCAASGYTYSSGCMGWFRQAPGKEREAVAAINSDGSTSYADSVKGRFTISKDNAKNTLYLQMNSLKPEDTAMYYCAAEPYCSGGYPRWSVAEFGYWGQGTQVTVSSGGGSQVQLQESGGGSVQAGGSLRLSCAASGYTYSMYCMGWFRQAPGKEREGVAQINSDGSTSYADSVKGRFTISKDNAKNTLYLQMNSLKPEDTAMYYCAADSRVYGGSWYERLCGPYTYEYNYWGQGTQVTVSSASHHHHHH
B7: IL10R binding molecule of SEQ ID NO: 308 (bispecific antibody)
chain: QVQLQESGGGSVQAGGSLRLSCAASGYTYSSGCMGWFRQAPGKEREAVAAINSDGSTSYADSVKGRFTISKDNAKNTLYLQMNSLKPEDTAMYYCAAEPYCSGGYPRWSVAEFGYWGQGTQVTVSSGGGSQVQLQESGGGSVQAGGSLRLSCAVSGYAYSTYCMGWFRQAPGKEREGVAAIDSGGSTSYADSVKGRFTISKDNAKNTLYLRMNSLKPEDTAMYYCAAVPPPPDGGSCLFLGPEIKVSKADFRYWGQGTQVTVSSASHHHHHH
B8: IL10R binding molecule of SEQ ID NO: 309 (bispecific antibody)
chain: QVQLQESGGGSVQAGGSLRLSCAASGYTYSSGCMGWFRQAPGKEREAVAAINSDGSTSYADSVKGRFTISKDNAKNTLYLQMNSLKPEDTAMYYCAAEPYCSGGYPRWSVAEFGYWGQGTQVTVSSGGGSQVQLQESGGGSVQAGGSLRLSCTVSGYTYSSNCMGWFRQAPGKEREGVATIYTGGGNTYYADSVKGRFTISQDNAKNTVYLQMNNLKPEDTAMYYCAAEPLSRVYGGSCPTPTFDYWGQGTQVTVSSASHHHHHH
B9: IL10R binding molecule of SEQ ID NO: 260 (bispecific antibody)
chain: QVQLQESGGGSVQAGGSLRLSCAASRYLYSIDYMAWFRQSPGKEREPVAVIYTASGATFYPDSVKGRFTISQDNAKMTVYLQMNSLKSEDTAMYYCAAVRKTDSYLFDAQSFTYWGQGTQVTVSSGGGSQVQLQESGGGSVEAGGSLRLSCAASGYTHSSYCMGWFRQAPGKEREGVAAIDVDGSTTYADSVKGRFTISKDNAKNTLYLQMNSLKPEDTGMYYCAAEFADCSSNYFLPPGAVRYWGQGTQVTVSSASHHHHHH
B10: IL10R binding molecule of SEQ ID NO: 310 (bispecific antibody)
chain: QVQLQESGGGSVQAGGSLRLSCAASGYTYSSGCMGWFRQAPGKEREAVAAINSDGSTSYADSVKGRFTISKDNAKNTLYLQMNSLKPEDTAMYYCAAEPYCSGGYPRWSVAEFGYWGQGTQVTVSSGGGSQVQLQESGGGSVQAGGSLRLSCGASGYTYSSYCMGWFRQVPGKEREGVAVIDSDGSTSYADSVKGRFTISKDNGKNTLYLQMNSLKPEDTAMYYCAADLGHYRPPCGVLYLGMDYWGKGTQVTVSSASHHHHHH
B11: IL10R binding molecule of SEQ ID NO: 311 (bispecific antibody)
chain: QVQLQESGGGSVQAGGSLRLSCAASGYTYSSGCMGWFRQAPGKEREAVAAINSDGSTSYADSVKGRFTISKDNAKNTLYLQMNSLKPEDTAMYYCAAEPYCSGGYPRWSVAEFGYWGQGTQVTVSSGGGSQVQLQESGGGSVQAGGSLRLSCAASGYSNCSYDMTWYRQAPGKEREFVSAIHSDGSTRYADSVKGRFFISQDNAKNTVYLQMNSLKPEDTAMYYCKTDPLHCRAHGGSWYSVRANYWGQGTQVTVSSASHHHHHH
B12: IL10R binding molecule of SEQ ID NO: 312 (bispecific antibody)
chain: QVQLQESGGGSVQAGGSLRLSCAASGYTYSSYCMGWFRQAPGKEREGVAHIDSDGSTSYADSVKGRFTISKDNAKNTLYLQMNSLKPEDTAMYYCAADPIPGPGYCDGGPNKYWGQGTQVTVSSGGGSQVQLQESGGGSVQAGGSLRLSCAASRYLYSIDYMAWFRQSPGKEREPVAVIYTASGATFYPDSVKGRFTISQDNAKMTVYLQMNSLKSEDTAMYYCAAVRKTDSYLFDAQSFTYWGQGTQVTVSSASHHHHHH
B13: IL10R binding molecule of SEQ ID NO: 313 (bispecific antibody)
chain: QVQLQESGGGSVQAGGSLRLSCAASGYTYSSYCMGWFRQAPGKEREGVAHIDSDGSTSYADSVKGRFTISKDNAKNTLYLQMNSLKPEDTAMYYCAADPIPGPGYCDGGPNKYWGQGTQVTVSSGGGSQVQLQESGGGSVQAGGSLRLSCAASRFTYSSYCMGWFRQAPGKEREGVASIDSDGSTSYTDSVKGRFTISKDNAKNTLYLQMNSLKPEDTAMYYCALDLMSTVVPGFCGFLLSAGMDYWGKGTQVTVSSASHHHHHH
B14: IL10R binding molecule of SEQ ID NO: 314 (bispecific antibody)
chain: QVQLQESGGGSVQAGGSLRLSCAASGYTYSSYCMGWFRQAPGKEREGVAHIDSDGSTSYADSVKGRFTISKDNAKNTLYLQMNSLKPEDTAMYYCAADPIPGPGYCDGGPNKYWGQGTQVTVSSGGGSQVQLQESGGGSVQAGGSLRLSCAASGYTYSMYCMGWFRQAPGKEREGVAQINSDGSTSYADSVKGRFTISKDNAKNTLYLQMNSLKPEDTAMYYCAADSRVYGGSWYERLCGPYTYEYNYWGQGTQVTVSSASHHHHHH
B15: IL10R binding molecule of SEQ ID NO: 315 (bispecific antibody)
chain: QVQLQESGGGSVQAGGSLRLSCAASGYTYSSYCMGWFRQAPGKEREGVAHIDSDGSTSYADSVKGRFTISKDNAKNTLYLQMNSLKPEDTAMYYCAADPIPGPGYCDGGPNKYWGQGTQVTVSSGGGSQVQLQESGGGSVQAGGSLRLSCAVSGYAYSTYCMGWFRQAPGKEREGVAAIDSGGSTSYADSVKGRFTISKDNAKNTLYLRMNSLKPEDTAMYYCAAVPPPPDGGSCLFLGPEIKVSKADFRYWGQGTQVTVSSASHHHHHH
B16: IL10R binding molecule of SEQ ID NO: 316 (bispecific antibody)
chain: QVQLQESGGGSVQAGGSLRLSCAASGYTYSSYCMGWFRQAPGKEREGVAHIDSDGSTSYADSVKGRFTISKDNAKNTLYLQMNSLKPEDTAMYYCAADPIPGPGYCDGGPNKYWGQGTQVTVSSGGGSQVQLQESGGGSVQAGGSLRLSCTVSGYTYSSNCMGWFRQAPGKEREGVATIYTGGGNTYYADSVKGRFTISQDNAKNTVYLQMNNLKPEDTAMYYCAAEPLSRVYGGSCPTPTFDYWGQGTQVTVSSASHHHHHH

Target: T1, human IL-10 receptor (hIL-10R alpha and …)
Assay: cell-based or functional assay

Row | Abs 630 (25 nM) [Abs 630] | Abs 630 (100 nM) [Abs 630] | Binder
1 | 2.08 | 2.04 | B1
2 | 1.85 | 1.13 | B2
3 | 1.96 | 2.06 | B3
4 | 0.59 | 0.35 | B4
5 | 0.69 | 0.49 | B5
6 | 0.44 | 0.34 | B6
7 | 0.48 | 0.39 | B7
8 | 0.45 | 0.37 | B8
9 | 0.49 | 0.39 | B9
10 | 0.51 | 0.44 | B10
11 | 0.48 | 0.4 | B11
12 | 0.48 | 0.39 | B12
13 | 0.47 | 0.39 | B13
14 | 0.49 | 0.42 | B14
15 | 0.51 | 0.41 | B15
16 | 0.48 | 0.39 | B16
